Test results: the supplement of paper PMC10266784

B1: library; numbered along this chain (parent)
chain: MAAAAAAAAEQQSSNGPVKKSMREKAVERRSVNKEHNSNFKAGYIPIDEDRLHKTGLRGRKGNLAICVIILLFILAVINLIITLVIWAVIRIGPNGCDSMEFHESGLLRFKQVSDMGVIHPLYKSTVGGRRNENLVITGNNQPIVFQQGTTKLSVENNKTSITSDIGMQFFDPRTQNILFSTDYETHEFHLPSGVKSLNVQKASTERITSNATSDLNIKVDGRAIVRGNEGVFIMGKTIEFHMGGNMELKAENSIILNGSVMVSTTRLPSSSSGDQLGSGDWVRYKLCMCADGTLFKVQVTSQNMGCQISDNPCGNTH

Variants of: B1
Assay: SGCB cell-surface expression functional score (HA stain, bin4 vs bin1, normalised to synonymous) (log10 ratio); higher = more cell-surface SGCB (functional)
Procedure, shortened: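 The functional score is a log ratio of variant frequency in the highest versus the lowest intensity bin, expressed as a median over codons and duplicate transductions. Codon-saturation libraries of HA-tagged, YFP-fused human beta-sarcoglycan were transduced by lentivirus at MOI <0.1 into HEK293 cells stably expressing alpha-, gamma- and delta-sarcoglycan, and the cells were stained on ice with Alexa Fluor 647 anti-HA, fixed and sorted into four 5% intensity bins before amplicon sequencing. Synonymous variants were scaled to mean 0, SD 0.5 within each section.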

SGCB cell-surface expression functional score (log10): each site, then its substitutions
L198: E -2.32, A -1.81, W -0.6, N -1.95, Q -1.42, D -2.43, V -0.55, T -2.13, I -0.47, F 0.25, H -0.37, K -1.58, R -2.21, Y -1.67, C -0.88, M -0.81, P -1.18
T209: M 0.74, Y -0.71, A -0.04, H -0.13, S 0.1, C -1.07, R -0.83, V 0.51, L -0.72, K -1.12, Q -0.66, I -0.34, W -0.85, P -0.71, F -0.85, D -1.17, N -0.52
N199: T 0.07, C -0.28, M -0.42, L -0.05, K 0.02, V 0.22, F 0.74, D 0.38, A -0.02, Y -0.67, W 1.05, G -0.38, E -0.68, S 0.26, H 0.18, R -0.3, Q 0.86, P -1.11, I -0.28
S197: H -0.72, N -0.61, Q 0.43, K -0.3, L 0.24, C 0.14, W 0.4, V 1.76, P -2.03, R -0.6, G -0.19, A -0.6, M -1.08, T -0.2, Y -1.16, D -0.76, E -0.43, F -2.04, I -0.04
A212: I 0.23, H -0.76, L -0.95, V -0.06, C -0.61, Q 0.72, M 0.16, F -0.4, E 0.91, D 0.56, R -1.47, N -0.89, W -0.44, K -1.05, S 0.29, G 0.11, Y 0.86, T 0.02, P -0.25
T205: E -0.93, V -0.05, S -0.16, R -1.93, P -0.48, A -0.17, I -0.16, H -0.99, M -0.07, L -0.11, D -1.46, K -2.61, N -1.69, Q -2.06, W -2.65, F -0.9, C -0.21, G -1.7, Y -1.37
K202: Y -0.69, F -1.04, D -1.97, S 0.02, L 0.04, A -0.2, H -1.29, P -0.97, N -0.53, C -0.1, M 0.2, T 0.12, G -0.02, I -0.27, E -0.96, Q 0.17, W -0.14, R 0.09, V -0.17
N211: W -3.13, G -3.64, S -0.02, D -0.68, C -1.44, Q -0.03, M 0.07, P -0.12, T -0.4, K 0.09, E 0.12, L -0.58, R -0.82, F -0.28, Y 0, I -0.69, H -0.34, V -0.91, A -0.33
V200: P -1.16, D -1.23, M -0.63, C -1.14, K -2.94, Y -1.16, S -1.59, R -1.87, N -3.23, F -1.83, E -2.93, H -2.51, A -0.04, G -1.65, I 0.17, T -2.11, Q -0.73, L -0.58, W -1.75
